# According to patent publication US7442773B2, “Universal peptide-binding scaffolds and protein chips” (The Board of Trustees of The University of Illinois, priority 2004, dated 2008):
# B1: DWP-7: evolved single-chain HLA-DR1 variant (α-linker-β) from library lib-αβ, SEQ ID NOs:35 and 36 (protein)
# chain: RKEEHVITQAEFYLNPDQSGEFMFDFDGDEIFHVDMAKKETVWRLEEFGRFASFEAQGALANIAVDKANLEIMTKRSNYTPITNVPPEVTVLTNSPVELREPNVLICYIDKFTPPVVNVTWLRNGKPVTTGVSETVFLPREDHLFRKFHYLPFLPSTEDVYDCRVEHWGLDEPLLKHWEFNAPSPLPETTENLGGGGSGGGRSGGGGSGDTRPRFLWQHKFECHFFNGTERVRLLERCIYNQEESVRFDSDVGEYRAVTELGRPAAEYWNSQKDLLEQRRAAADTYCRHNYGVGESFTVRRRVEPKVTVYPSKTQPLQHHNLLVCSVSGFYPGSIEVRWFRNGQEEKAGVVSTGLIQNGDWTFQTLVMLETVPRSGEVYTCQVEHPSVTSPLTVEWRARSESAQSKLESRGPFEGKPIPNPLLGLDSTRTGHHHHHH
# modifications: Sequence of mutant DWP-7
# Target: biotinylated HA306-318 peptide
# Format: binding, influenza virus
# Conditions: 20 hours at 37° C., flow cytometry, estimated, read-out: apparent dissociation constant KD of the biotinylated HA306-318 peptide complex
molecule,measurement,value
B1,Kd,5 µM
